One molecule from patent US20250144178A1, “PHARMACEUTICAL COMPOSITION FOR CANCER TREATMENT COMPRISING FUSION PROTEIN INCLUDING IL-12 AND ANTI-FAP ANTIBODY AND ANTICANCER AGENT” (KANAPH THERAPEUTICS INC., priority 2022, published 2025) can be followed below.

For one experiment, the system named is HEK-Blue IL-12 cells. As to the kind of experiment: Signaling ability in IL-12 recognizing cells (STAT4 inducible SEAP reporter). Type of experiment: cell-based, human. The note with it: serial dilution from 4 nM, 24 hours, FIG. 18. On the procedure: The HEK-Blue IL-12 cell line transformed with the IL-12 receptor gene and the STAT4 inducible SEAP reporter gene into HEK293 cells, which are human embryonic kidney fibroblasts, was obtained from Invivogen (San Diego, USA). The HEK-Blue IL-12 cells were maintained in DMEM (GIBCO) containing 10% FBS (GIBCO), 100 μg/ml Normocin and 1×HEK-Blue selection.
Specifically, the HEK-Blue IL-12 cell line, which is an IL-12 recognizing cell, was diluted to 2.8×10^5 cells/ml and dispensed at 180 μl/well. Recombinant human IL-12, T1.01m, T1.02m, T1.03m and T1.12m were suspended at 4 nM and diluted by serial dilution. HEK-Blue IL-12 cells were treated with the diluted recombinant human IL-12, T1.01m, T1.02m, T1.03m and T1.12m. After 24 hours of treatment, the cell supernatant was collected and mixed with QUANTI-Blue Solution (Invivogen) in a 96-well plate. The reporter expression level was measured at 620 nm using a spectrophotometer (Thermo Fisher).

Another experiment concerns CT26 tumor. Kind of experiment: Tumor re-challenge in mice with complete response, CT26 tumor. It is filed as in vivo, BALB/c mice. To be noted: mice with complete response after T1.01m, right flank, FIG. 26. As for the experimental part:
In order to evaluate whether tumor recurrence may be inhibited by inducing long-term immune response after fusion protein treatment, tumor re-challenge was performed in subjects in which complete response was achieved by administration of T1.01m in a tumor model transplanted with CT26 cells overexpressing FAP. BALB/c mice without a treatment history were used as control mice.
4T1 cells were subcutaneously injected into the left flank and CT26 cells were subcutaneously injected into the right flank of control mice and mice in which complete response was achieved by administration of T1.01m, to obtain a tumor recurrence model.
CT26 cells and 4T1 cells were suspended in Hanks' Balanced salt solution (HBSS, Gibco) at a concentration of 1×10^6 cells/100 μl, respectively, and CT26 cells were transplanted into the subcutaneous region of the right flank of the mice using a 1 cc syringe (25G). Tumor formation and growth were evaluated by subcutaneous transplantation of 4T1 cells into the left flank of the same mice. Nine animals were used for the control group, and seven animals were used for the test group.

Experiment [1] has as its system FAP-overexpressing CT26 cells. As to the kind of experiment: Tumor growth inhibition, FAP-overexpressing CT26 model, repeated i.p. dosing. To be noted: 18 days after administration, control 50 μg T1.24m. It is filed as in vivo, BALB/c mice. On the procedure:
In order to prepare an mouse FAP-expressing tumor animal model, FAP overexpression was induced in CT26, a mouse colorectal cancer cell line. Specifically, the FAP-overexpressing CT26 cells in culture were resuspended in Hanks' Balanced salt solution (HBSS, Gibco), and then each 100 μl of 1×10^6 tumor cells per each mouse was transplanted into the subcutaneous region of the left dorsal side of 6-week-old BALB/c mice using a 1 cc syringe (25G) to obtain a mouse FAP-expressing colorectal cancer animal model. The tumor size was measured using a digital vernier caliper by measuring the short axis and long axis of the tumor, and the tumor size was measured twice a week using the calculation formula of (short axis, mm) 2×(long axis, mm)×0.5.
Next, for drug efficacy evaluation, when the size of the tumor reached 100 mm^3, the mice were randomly divided into groups. Each experimental group consisted of 8 animals, and as a control, each 100 μl of 50 μg of T1.24m was intraperitoneally administered four times at an interval of 3 days. In the test group, each 100 μl of 10 μg and 100 μg of T1.01m, and 2 μg, 10 μg and 100 μg of T1.02m, respectively, were intraperitoneally administered four times at an interval of 3 days to evaluate the tumor growth inhibitory ability.

Experiment [2] deals with FAP-overexpressing mouse colorectal cancer CT26. As to the kind of experiment: Tumor growth inhibition by IL-12 mutation, FAP-overexpressing CT26, single i.v. dose. Type of experiment: in vivo, BALB/c mice. The note with it: 10 μg i.v. once, 15 days after administration, control PBS, FIG. 28. On the procedure:
In order to evaluate the change in IL-12 activity according to the presence and extent of amino acid mutation, FAP-overexpressing mouse colorectal cancer CT26 was prepared by resuspending in PBS at a concentration of 5×10^5 cells/100 μl, and the tumor growth inhibitory ability was evaluated in a tumor animal model prepared by transplantation of the cells into 5-week-old female BALB/c mice.
Specifically, when the size of the tumor in the model reached 100 mm^3, the mice were randomly divided into groups. 100 μl of phosphate buffered saline (PBS) was administered once via tail vein injection of the control, and each of T1.01m, T1.02m and T1.03m was intravenously administered once at a dose of 10 μg.

B1: T1.01m: K&H bispecific: anti-mu FAP/mu IL-12, mu IgG2a DANG (seq18, seq19, seq20) (antibody)
heavy: QVQLQQSGAELARPGASVNLSCKASGYTFTNNGINWLKQRTGQGLEWIGEIYPRSTNTLYNEKFKGKATLTADRSSNTAYMELRSLTSEDSAVYFCARTLTAPFAFWGQGTLVTVSAAKTTAPSVYPLAPVCGDTTGSSVTLGCLVKGYFPEPVTLTWNSGSLSSGVHTFPAVLQSDLYTLSSSVTVTSSTWPSQSITCNVAHPASSTKVDKKIEPRGPTIKPCPPCKCPAPNLLGGPSVFIFPPKIKDVLMISLSPIVTCVVVAVSEDDPDVQISWFVNNVEVHTAQTQTHREDYGSTLRVVSALPIQHQDWMSGKEFKCKVNNKDLPAPIERTISKPKGSVRAPQVYVLPPPEEEMTKKQVTLWCMVTDFMPEDIYVEWTNNGKTELNYKNTEPVLDSDGSYFMYSKLRVEKKNWVERNSYSCSVVHEGLHNHHTTKSFSRTPGK
light: QIVLTQSPAIMSASPGEKVTMTCSASSGVNFMHWYQQKSGTSPKRWIFDTSKLASGVPARFSGSGSGTSYSLTISSMEAEDAATYYCQQWSFNPPTFGGGTKLEIKRADAAPTVSIFPPSSEQLTSGGASVVCFLNNFYPKDINVKWKIDGSERQNGVLNSWTDQDSKDSTYSMSSTLTLTKDEYERHNSYTCEATHKTSTSPIVKSFNRNEC
chain: MWELEKDVYVVEVDWTPDAPGETVNLTCDTPEEDDITWTSDQRHGVIGSGKTLTITVKEFLDAGQYTCHKGGETLSHSHLLLHKKENGIWSTEILKNFKNKTFLKCEAPNYSGRFTCSWLVQRNMDLKFNIKSSSSSPDSRAVTCGMASLSAEKVTLDQRDYEKYSVSCQEDVTCPTAEETLPIELALEARQQNKYENYSTSFFIRDIIKPDPPKNLQMKPLKNSQVEVSWEYPDSWSTPHSYFSLKFFVRIQRKKEKMKETEEGCNQKGAFLVEKTSTEVQCKGGNVCVQAQDRYYNSSCSKWACVPCRVRSGGGGSGGGGSGGGGSRVIPVSGPARCLSQSRNLLKTTDDMVKTAREKLKHYSCTAEDIDHEDITRDQTSTLKTCLPLELHKNESCLATRETSSTTRGSCLPPQKTSLMMTLCLGSIYEDLKMYQTEFQAINAALQNHNHQQIILDKGMLVAIDELMQSLNHNGETLRQKPPVGEADPYRVKMKLCILLHAFSTRVVTINRVMGYLSSAGGGGSGGGGSEPRGPTIKPCPPCKCPAPNLLGGPSVFIFPPKIKDVLMISLSPIVTCVVVAVSEDDPDVQISWFVNNVEVHTAQTQTHREDYGSTLRVVSALPIQHQDWMSGKEFKCKVNNKDLPAPIERTISKPKGSVRAPQVYVLPPPEEEMTKKQVTLSCAVTDFMPEDIYVEWTNNGKTELNYKNTEPVLDSDGSYFMVSKLRVEKKNWVERNSYSCSVVHEGLHNHHTTKSFSRTPGK
Take B1: in the experiment with HEK-Blue IL-12 cells, the “IL-12 recognition / STAT4 reporter gene expression (620 nm absorbance)” value was “IL-12 was recognized, and STAT4 expressed a reporter gene by inducing phosphorylation”. The “growth of re-challenged CT26 tumor” value with CT26 tumor is listed as “the growth of the CT26 tumor was inhibited”. In addition, the “tumor growth inhibitory ability compared to control” value in experiment [1] (10 μg i.p. four times at an interval of 3 days) was 84.9%; in experiment [1] (100 μg i.p. four times at an interval of 3 days), 85.6%. For the same molecule, the “tumor growth inhibitory ability compared to the control” value in experiment [2] is reported as “excellent tumor growth inhibitory ability”.
